Assay results from publication PMC7596504, “Molecular mechanism of the MORC4 ATPase activation” (Nature Communications, 2020).
Where no end group is shown, it is not given here. Me3 = trimethyl

T1: MORC4 CW domain (aa 417-475) (human, UniProt Q8TE76 417-475)
T1 construct: CW-type zinc finger domain of human MORC4, aa 417-475, cloned into pGEX 6p-1; Uniformly 15N-labelled in the NMR experiments; unlabelled protein was further purified by size exclusion chromatography; also called WT MORC4 CW domain; source: E. coli Rosetta2 (DE3) pLysS or BL21 (DE3) RIL, purified (glutathione agarose, GST tag cleaved)
T1 sequence (looked up): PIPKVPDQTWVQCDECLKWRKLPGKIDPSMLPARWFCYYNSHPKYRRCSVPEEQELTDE

T2: MORC4 CW domain K460A/R462A/R463A (human, UniProt Q8TE76 417-475, K460A | R462A | R463A)
T2 construct: CW-type zinc finger domain of human MORC4, aa 417-475, triple mutant; Uniformly 15N-labelled in the NMR experiment; also called CWKRR; MORC4 CWKRR; source: E. coli, grown and purified as wild-type protein (glutathione agarose, GST tag cleaved)
T2 sequence (looked up): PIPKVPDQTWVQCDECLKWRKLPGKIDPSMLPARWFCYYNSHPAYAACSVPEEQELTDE

B1: MORC4 ATPaseCW cassette (aa 29-486) (domain or fragment, human, UniProt Q8TE76 29-486, looked up)
chain: GIRLSTMSPRYLQSNSSSHTRPFSAIAELLDNAVDPDVSARTVFIDVEEVKNKSCLTFTDDGCGMTPHKLHRMLSFGFTDKVIKKSQCPIGVFGNGFKSGSMRLGKDALVFTKNGGTLTVGLLSQTYLECVQAQAVIVPIVPFNQQNKKMIITEDSLPSLEAILNYSIFNRENDLLAQFDAIPGKKGTRVLIWNIRRNKNGKSELDFDTDQYDILVSDFDTEEKMTGGVTSELPETEYSLRAFCGILYMKPRMKIFLRQKKVTTQMIAKSLANVEYDTYKPTFTNKQVRITFGFSCKNSNQFGIMMYHNNRLIKSFEKVGCQVKPTRGEGVGVIGVIECNFLKPAYNKQDFEYTKEYRLTINALAQKLNAYWKEKTSQDNFETSTVARPIPKVPDQTWVQCDECLKWRKLPGKIDPSMLPARWFCYYNSHPKYRRCSVPEEQELTDEDLCLSKAKKQE
notes: ATPase domain and CW domain of human MORC4, aa 29-486, cloned into pDEST15; Homodimer in the crystal with AMPPNP and Mg2+; source: E. coli Rosetta2 (DE3) pLysS or BL21 (DE3) RIL, purified (glutathione agarose, GST tag cleaved, SEC)

Key:
[1] = molecular target: T1, MORC4 CW domain (aa 417-475); assay: other fluorescence titration; tryptophan fluorescence, 25 °C; 0.5-1 µM ATPaseCW or CW in 20 mM Tris pH 6.8, 100 mM NaCl, 2 mM DTT, increasing histone peptide; conditions: both partners purified
[2] = molecular target: the molecule itself; assay: crystal structure; ATPaseCW (aa 29-486) with AMPPNP and Mg2+, 2.9 Å; crystallised after incubation with H3K4me3 peptide and 2 mM AMPPNP
[3] = molecular target: B1; assay: other fluorescence titration; tryptophan fluorescence, 25 °C; ATPaseCW in the presence of 601 DNA (ATPaseCW:601 DNA complex), increasing histone peptide; conditions: both partners purified
[4] = molecular target: T2, MORC4 CW domain K460A/R462A/R463A; assay: NMR titration; 1H,15N HSQC of 15N-labelled CWKRR titrated with H3K4me3 peptide; 20 mM Tris-HCl pH 6.8, 150 mM NaCl, 2 mM DTT; conditions: both partners purified
[5] = molecular target: B1; assay: other fluorescence titration; tryptophan fluorescence, 25 °C; 0.5-1 µM ATPaseCW or CW in 20 mM Tris pH 6.8, 100 mM NaCl, 2 mM DTT, increasing histone peptide; conditions: both partners purified

| Kd [1] [nM] | Kd [3] [nM] | binding result [4] | Kd [5] [nM] | Binder | binding result [2] |
| --- | --- | --- | --- | --- | --- |
| 2700 | – | – | – | ARTKQTARKSTG (peptide, UniProt P68431 2-13, looked up, N-terminal tail of histone H3, aa 1-12; also called H3K4; unmodified H3 peptide) [unmodified histone H3 peptide (aa 1-12 of H3)] | – |
| – | – | – | – | B1 | binds |
| 112 | 40 | binds | 180 | ARTK(Me3)QTARKSTG (peptide, UniProt P68431 2-13, looked up, N-terminal tail of histone H3, aa 1-12) [histone H3K4me3 peptide (aa 1-12 of H3)] | – |
